B1: MS-GPC-8-27-41 (IgG4 form) (antibody, V domains shown)
VH: QVELKESGPALVKPTQTLTLTCTFSGFSLSTSGVGVGWIRQPPGKALEWLALIDWDDDKYYSTSLKTRLTISKDTSKNQVVLTMTNMDPVDTATYYCARSPRYRGAFDYWGQGTLVTVSS
VL: DIVLTQPPSVSGAPGQRVTISCSGSESNIGNNYVQWYQQLPGTAPKLLIYDNNQRPSGVPDRFSGSKSGTSASLAITGLQSEDEADYYCQSYDMNVHVFGGGTKLTVLG
B2: MS-GPC-8-10-57 (IgG4 form) (antibody, V domains shown)
VH: QVELKESGPALVKPTQTLTLTCTFSGFSLSTSGVGVGWIRQPPGKALEWLALIDWDDDKYYSTSLKTRLTISKDTSKNQVVLTMTNMDPVDTATYYCARSPRYRGAFDYWGQGTLVTVSS
VL: DIVLTQPPSVSGAPGQRVTISCSGSESNIGNNYVQWYQQLPGTAPKLLIYDNNQRPSGVPDRFSGSKSGTSASLAITGLQSEDEADYYCQSYDLIRHVFGGGTKLTVLG
B3: MS-GPC-8-17 (Fab) (Fab, V domains shown)
VH: QVQLKESGPALVKPTQTLTLTCTFSGFSLSTSGVGVGWIRQPPGKALEWLALIDWDDDKYYSTSLKTRLTISKDTSKNQVVLTMTNMDPVDTATYYCARSPRYRGAFDYWGQGTLVTVSS
VL: DIVLTQPPSVSGAPGQRVTISCSGSSSNIGSNYVSWYQQLPGTAPKLLIYDNNQRPSGVPDRFSGSKSGTSASLAITGLQSEDEADYYCQSYDFSVYVFGGGTKLTVLG
B4: MS-GPC-8-6-13 (IgG4 form) (antibody, V domains shown)
VH: QVELKESGPALVKPTQTLTLTCTFSGFSLSTSGVGVGWIRQPPGKALEWLALIDWDDDKYYSTSLKTRLTISKDTSKNQVVLTMTNMDPVDTATYYCARSPRYRGAFDYWGQGTLVTVSS
VL: DIVLTQPPSVSGAPGQRVTISCSGSESNIGANYVTWYQQLPGTAPKLLIYDNNQRPSGVPDRFSGSKSGTSASLAITGLQSEDEADYYCQSYDYDHYVFGGGTKLTVLG
B5: MS-GPC-8-Fab (Fab, V domains shown)
VH: QVQLKESGPALVKPTQTLTLTCTFSGFSLSTSGVGVGWIRQPPGKALEWLALIDWDDDKYYSTSLKTRLTISKDTSKNQVVLTMTNMDPVDTATYYCARSPRYRGAFDYWGQGTLVTVSS
VL: DIVLTQPPSVSGAPGQRVTISCSGSSSNIGSNYVSWYQQLPGTAPKLLIYDNNQRPSGVPDRFSGSKSGTSASLAITGLQSEDEADYYCQSYDMPQAVFGGGTKLTVLG
B6: MS-GPC-8-6 (Fab) (Fab, V domains shown)
VH: QVQLKESGPALVKPTQTLTLTCTFSGFSLSTSGVGVGWIRQPPGKALEWLALIDWDDDKYYSTSLKTRLTISKDTSKNQVVLTMTNMDPVDTATYYCARSPRYRGAFDYWGQGTLVTVSS
VL: DIVLTQPPSVSGAPGQRVTISCSGSSSNIGSNYVSWYQQLPGTAPKLLIYDNNQRPSGVPDRFSGSKSGTSASLAITGLQSEDEADYYCQSYDYDHYVFGGGTKLTVLG

Target: HLA-DR as expressed on the tumor cell line
Experiment: cell-based or functional assay

Row | Binder | % Killing by mAb; ARH-77 (DR 12); 50 nM, 4 h [%] | % Killing by mAb; BJAB (DR 12,13); 50 nM, 4 h [%] | % Killing by mAb; BONNA-12; 50 nM, 4 h [%] | % Killing by mAb; DOHH-2 (DR 1,2); 50 nM, 4 h [%] | % Killing by mAb; EOL-1; 50 nM, 4 h [%] | % Killing by mAb; GRANTA-519 (DR 2,11); 50 nM, 4 h [%] | % Killing by mAb; HC-1; 50 nM, 4 h [%] | % Killing by mAb; HD-MY-Z; 50 nM, 4 h [%] | % Killing by mAb; HDLM-2; 50 nM, 4 h [%] | % Killing by mAb; KARPAS-299 (DR 1,2); 50 nM, 4 h [%] | % Killing by mAb; KARPAS-422 (DR 2,4); 50 nM, 4 h [%] | % Killing by mAb; KM-H2; 50 nM, 4 h [%] | % Killing by mAb; L1236; 50 nM, 4 h [%] | % Killing by mAb; L-363; 50 nM, 4 h [%] | % Killing by mAb; L-428 (DR 12); 50 nM, 4 h [%] | % Killing by mAb; LP-1; 50 nM, 4 h [%] | % Killing by mAb; MHH-CALL-4 (DR 1,2); 50 nM, 4 h [%] | % Killing by mAb; MHH-PREB-1; 50 nM, 4 h [%] | % Killing by mAb; MN-60 (DR 10,13); 50 nM, 4 h [%] | % Killing by mAb; NALM-1 (DR 1,4); 50 nM, 4 h [%] | further results
1 | B1 | 85 | 71 | 92 | 59 | 69 | 78 | 93 | 69 | 88 | 82 | 66 | 86 | 63 | 26 | 91 | 73 | 63 | 4 | 69 | 82 | % Killing by mAb; RAJI (DR 10,17); 50 nM, 4 h: 84%; % Killing by mAb; RPMI-8226; 50 nM, 4 h: 29%; % Killing by mAb; SR-786 (DR 1,2); 50 nM, 4 h: 53%; killing of melanoma cell line WM 115: 21%
2 | B2 | 88 | 67 | 91 | 60 | 49 | 78 | 86 | 57 | 84 | 79 | 68 | 88 | 66 | 24 | 91 | 70 | 46 | 8 | 66 | 78 | % Killing by mAb; RAJI (DR 10,17); 50 nM, 4 h: 86%; % Killing by mAb; RPMI-8226; 50 nM, 4 h: 26%; % Killing by mAb; SR-786 (DR 1,2); 50 nM, 4 h: 44%
3 | B3 | – | – | – | – | – | – | – | – | – | – | – | – | – | – | – | – | – | – | – | – | maximum capacity to kill MHH-Call 4 cells: 78%
4 | B4 | 87 | 64 | 86 | 53 | 53 | 73 | 93 | 72 | 90 | 76 | 71 | 87 | 66 | 19 | 92 | 73 | 43 | 11 | 67 | 65 | % Killing by mAb; RAJI (DR 10,17); 50 nM, 4 h: 83%; % Killing by mAb; RPMI-8226; 50 nM, 4 h: 19%; % Killing by mAb; SR-786 (DR 1,2); 50 nM, 4 h: 26%
5 | B5 | – | – | – | – | – | – | – | – | – | – | – | – | – | – | – | – | – | – | – | – | maximum capacity to kill MHH-Call 4 cells: 65%
6 | B6 | – | – | – | – | – | – | – | – | – | – | – | – | – | – | – | – | – | – | – | – | maximum capacity to kill MHH-Call 4 cells: 76%

Source: patent publication US20070086998A1
